Laboratory results taken from patent US20230190943A1, “ALGINIC ACID DERIVATIVE BONDED TO NONSTEROIDAL ANTI-INFLAMMATORY COMPOUND” (MOCHIDA PHARMACEUTICAL CO., LTD., priority 2018, published 2023).

Legend:
[1] = tested on: Rat 1% Silver Nitrate-Induced Pain Model; experiment: Intra-articular administration in rat 1% silver nitrate-induced pain model, gait pain score (Example 24); assay type: in vivo; settings: for average pain score: scale 0-3, 0.1 mL/kg into left hindlimb knee joint
Protocol: Rats (Crj: SD system (SPF), male, 6 weeks of age) were anesthetized, and a 1% silver nitrate solution was administered into the left hindlimb knee joint cavity at a dose of 50 µL/joint.
The gait state of the rats on the day after the model was created was evaluated by scoring. The rats were divided into groups based on the obtained scores, and under inhalation anesthesia with isoflurane, each test substance was administered at 0.1 mL/kg into the rat left hindlimb knee joint (n = 8).
The gait score was given once a day for 5 days from the day on which test substance was administrated. Note that, as the score on the first day, the score before administration (grouping) was used. Under the blind, the gait state of each group was visually observed using the following pain score table based on the gait state.
The results are shown by the average pain score on Table 16. • 0: Normal • 1: mild claudication with lifting the foot • 2: severe claudication with completely closing the toe • 3: walking on three legs

[2] = rabbit, in vivo
Protocol: For each test substance, 4 rabbits were used, the whole body was fixed with a towel under no anesthesia, the area around the left knee j oint was wiped with alcohol, and then 0.1 mL/kg of each of the above test substances was administered into the j oint cavity from the outside of the rabbit knee using a Terumo 1 mL syringe equipped with a 26 G injection needle (manufactured by Terumo).
Rabbits were exsanguinated and killed under combined anesthesia by intramuscular administration of ketamine hydrochloride and xylazine. The joint capsule was incised just below the patella to expose the knee joint cavity, and the inside of the joint cavity was washed with 2 mL of physiological saline using a catheter with a Surflo indwelling needle 20 G, and the synovial fluid mixed with physiological saline was collected. The amount of DF in the recovered synovial fluid was measured by the following procedure.
The synovial tissue was separated and collected from the knee joint after collecting the synovial fluid in (2) above. The collected synovial tissue was washed with physiological saline to remove the attached synovial fluid. After removing the patella, the synovial tissue was placed in a tube, and the tissue was cut into small pieces with scissors. […] The same extraction operation as in (2) above was performed, and the amount of free diclofenac was measured using LC-MS/MS.

[3] = Release test of free diclofenac, felbinac, ketoprofen or naproxen in sodium phosphate buffer (Example 23); assay type: physicochemical
Protocol: (§1) (set temperature of air conditioner). After confirming that no gel was formed, this solution was dispensed. Immediately after the dissolution, the amount of free diclofenac present in each solution was measured by LC-MS/MS as an initial state (day 0 of storage). Also, the other dispensed solutions were incubated at 37° C. for 1, 3, and 7 days, and then the amount of free diclofenac was measured. […] The MS conditions are as follows. • Ionization mode: ESI-negative • Ion source temperature: 300 degrees • Capillary voltage: -4000 V

[4] = Release test of free diclofenac from conjugates in 20 mM sodium phosphate buffer, 37°C (Example 11); assay type: physicochemical; settings: for Release Rate in Release Test at pH 5.3: pH 5.3, 37°C; for Release Rate in Release Test at pH 5.3 / Release Rate in Release Test at pH 7.0: free diclofenac; for Release Rate in Release Test at pH 7.0: pH 7.0, 37°C
Protocol: as §1

[5] = Day 1 (score before administration, grouping)
[6] = pH 5.3, day 1, free drug (diclofenac, felbinac, ketoprofen or naproxen)
[7] = pH 5.3, day 3, free drug (diclofenac, felbinac, ketoprofen or naproxen)
[8] = pH 5.3, day 7, free drug (diclofenac, felbinac, ketoprofen or naproxen)
[9] = pH 7.0, day 1, free drug (diclofenac, felbinac, ketoprofen or naproxen)
[10] = pH 7.0, day 3, free drug (diclofenac, felbinac, ketoprofen or naproxen)
[11] = pH 7.0, day 7, free drug (diclofenac, felbinac, ketoprofen or naproxen)

Row | Molecule | average pain score [1, 5] | average pain score ([1]; Day 2) | average pain score ([1]; Day 3) | average pain score ([1]; Day 4) | average pain score ([1]; Day 5) | degree of pain relief (recovery from pain) ([1]; compared with diclofenac, alginic acid and diclofenac + alginic acid administration groups) | DF retained in the synovial tissue continuously until ... after administration [2] | Release Rate in Release Test at pH 5.3 [3, 6] | Release Rate in Release Test at pH 5.3 [3, 7] | Release Rate in Release Test at pH 5.3 [3, 8] | Release Rate in Release Test at pH 7.0 [3, 9] | Release Rate in Release Test at pH 7.0 [3, 10] | Release Rate in Release Test at pH 7.0 [3, 11] | Release Rate in Release Test at pH 5.3 ([4]; Day 1, 0.1% w/w conjugate) | Release Rate in Release Test at pH 5.3 ([4]; Day 3, 0.1% w/w conjugate) | Release Rate in Release Test at pH 5.3 ([4]; Day 7, 0.1% w/w conjugate) | Release behaviour in the release test at pH 7.0 (in words) [4] | Release Rate in Release Test at pH 7.0 ([4]; Day 1, 0.1% w/w conjugate) | Release Rate in Release Test at pH 7.0 ([4]; Day 3, 0.1% w/w conjugate) | Release Rate in Release Test at pH 7.0 ([4]; Day 7, 0.1% w/w conjugate)
1 | Diclofenac-(2-Amino-N-(2-Hydroxyethyl)Acetamide)-Alginic Acid Derivative [Compound 53b] | 2.5 | 1.0 | 0.9 | 0.5 | 0.4 | faster | ≥ 84 days | 0.6% | 0.8% | 1.0% | 0.9% | 2.3% | 6.4% | – | – | – | – | – | – | –
2 | Diclofenac-(2-Amino-1-(4-Hydroxypiperidin-1-Yl)Ethan-1-One)-Alginic Acid Derivative [Compound 63a] | – | – | – | – | – | – | ≥ 84 days | 0.0% | 0.2% | 0.2% | 0.3% | 0.8% | 2.2% | – | – | – | – | – | – | –
3 | O=C([O-])Cc1ccccc1Nc1c(Cl)cccc1Cl.[Na+] [DF, Diclofenac Na, reference compound] | 2.5 | 1.9 | 1.9 | 1.0 | 0.8 | – | – | – | – | – | – | – | – | – | – | – | – | – | – | –
4 | Diclofenac-(N-(Aminoethyl)-2-Hydroxyacetamide)-Alginic Acid Derivative [Compound 42] | – | – | – | – | – | – | – | – | – | – | – | – | – | 0.0% | 0.5% | 3.3% | stably released | 1.8% | 10.2% | 21.0%
5 | Diclofenac-(2-Aminoethanol)-Alginic Acid Derivative [Compound 5a] | – | – | – | – | – | – | – | – | – | – | – | – | – | 0.0% | 0.1% | 0.2% | – | 0.2% | 2.3% | 4.1%
6 | Diclofenac-(2-Aminoethanol)-Alginic Acid Derivative [Compound 5b] | – | – | – | – | – | – | – | – | – | – | – | – | – | 0.0% | 0.0% | 0.3% | stably released | 0.1% | 2.1% | 5.0%
